The substances below were run against human IL-18BP-His (human) (UniProt O95998) (assay: AlphaLISA detection of free IL-18BP).
human IL-18BP-His (human), sequence (O95998 31-194): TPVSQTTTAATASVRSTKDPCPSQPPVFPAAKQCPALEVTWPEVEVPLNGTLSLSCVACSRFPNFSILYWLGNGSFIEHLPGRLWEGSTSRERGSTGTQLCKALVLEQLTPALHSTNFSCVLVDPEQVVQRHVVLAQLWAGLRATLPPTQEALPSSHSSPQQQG

| Substance | Kd [nM] |
| --- | --- |
| IL-18 polypeptide C142 (Y1M, E6K, V11I, C38A, K53A, T63A, C76A, C127A) (from UniProt Q14116 38-193) (ligand) | 2.25 |
| IL-18 polypeptide C143 (V11I, C38A, K53A, C76A, C127A) (from UniProt Q14116 37-193) (ligand) | 8.86 |
| IL-18 polypeptide C145 (V11I, C38A, K53A, S55A, C76A, C127A) (from UniProt Q14116 37-193) (ligand) | 9.74 |
| IL-18 polypeptide C146 (SEQ ID NO: 68; V11I, C38A, M51G, K53A, C76A, C127A) (from UniProt Q14116 37-193) (ligand) | 373 |
| IL-18 polypeptide C147 (V11I, C38A, K53A, D54A, C76A, C127A) (from UniProt Q14116 37-193) (ligand) | 25.8 |
| IL-18 polypeptide C148 (F2A, V11I, C38A, K53A, C76A, C127A) (from UniProt Q14116 37-193) (ligand) | 57.2 |
| IL-18 polypeptide C150 (V11I, T34A, C38A, K53A, C76A, C127A) (from UniProt Q14116 37-193) (ligand) | 1.24 |
| IL-18 polypeptide C151 (V11I, D35A, C38A, K53A, C76A, C127A) (from UniProt Q14116 37-193) (ligand) | 2.88 |
| IL-18 polypeptide C152 (V11I, S36A, C38A, K53A, C76A, C127A) (from UniProt Q14116 37-193) (ligand) | 1.12 |
| IL-18 polypeptide C153 (V11I, D37A, C38A, K53A, C76A, C127A) (from UniProt Q14116 37-193) (ligand) | 4.55 |
| IL-18 polypeptide C154 (V11I, E31A, D37A, C38A, K53A, C76A, C127A) (from UniProt Q14116 37-193) (ligand) | 2.12 |
| IL-18 polypeptide C156 (V11I, C38A, N41A, K53A, C76A, C127A) (from UniProt Q14116 37-193) (ligand) | 18.5 |
| IL-18 polypeptide C157 (V11I, C38A, K53A, C76A, C127A, D132A) (from UniProt Q14116 37-193) (ligand) | 13.7 |
| IL-18 polypeptide C158 (V11I, C38A, K53A, C76A, G108A, C127A) (from UniProt Q14116 37-193) (ligand) | 1.24 |
| IL-18 polypeptide C176 (E6K, V11I, C38A, I49M, K53A, T63A, C76A, C127A) (from UniProt Q14116 37-193) (ligand) | 25.8 |
| IL-18 polypeptide C184 (E6R, V11I, C38A, K53A, T63A, C76A, C127A) (from UniProt Q14116 37-193) (ligand) | 5.46 |
| IL-18 polypeptide of SEQ ID NO: 35 (Y01G, F02A, E06K, M51G, K53A, D54A, S55A, T63A) (from UniProt Q14116 37-193) (ligand) | 969 |

| Substance | Kd [nM] |
| --- | --- |
| IL-18 polypeptide of SEQ ID NO: 36 (K53A) (from UniProt Q14116 37-193) (ligand) | 514 |
| IL-18 polypeptide of SEQ ID NO: 37 (S55A) (from UniProt Q14116 37-193) (ligand) | 10.7 |
| IL-18 polypeptide of SEQ ID NO: 39 (E06K, K53A) (from UniProt Q14116 37-193) (ligand) | 130 |
| IL-18 polypeptide of SEQ ID NO: 40 (E06K, S55A) (from UniProt Q14116 37-193) (ligand) | 12.3 |
| IL-18 polypeptide of SEQ ID NO: 41 (K53A, S55A) (from UniProt Q14116 37-193) (ligand) | 500 |
| IL-18 polypeptide of SEQ ID NO: 42 (E06K, K53A, S55A, T63A) (from UniProt Q14116 37-193) (ligand) | 822 |
| IL-18 polypeptide of SEQ ID NO: 50 (E06K, K53A, T63A) (from UniProt Q14116 37-193) (ligand) | 340 |
| IL-18 polypeptide of SEQ ID NO: 51 (T63A) (from UniProt Q14116 37-193) (ligand) | 2.59 |
| IL-18 polypeptide of SEQ ID NO: 53 (K53A, T63A) (from UniProt Q14116 37-193) (ligand) | 198 |
| IL-18 polypeptide of SEQ ID NO: 54 (E06K, K53A, C38S, C68S, C76S, C127S, K70C) (from UniProt Q14116 37-193) (ligand) | 446 |
| IL-18 polypeptide of SEQ ID NO: 55 (K53A, T63A, C38S, C68S, C76S, C127S, K70C) (from UniProt Q14116 37-193) (ligand) | 913 |
| IL-18 polypeptide of SEQ ID NO: 56 (E6K, K53A, C38S, C76S, C127S) (from UniProt Q14116 37-193) (ligand) | 436 |
| IL-18 polypeptide of SEQ ID NO: 57 (E6K, C38S, K53A) (from UniProt Q14116 37-193) (ligand) | 50.2 |
| IL-18 polypeptide of SEQ ID NO: 59 (E6K, C38A, K53A) (from UniProt Q14116 37-193) (ligand) | 36 |
| IL-18 polypeptide of SEQ ID NO: 60 (E6K, C38Q, K53A) (from UniProt Q14116 37-193) (ligand) | 24.8 |
| IL-18 polypeptide of SEQ ID NO: 62 (E6K, C38A, K53A, C127A) (from UniProt Q14116 37-193) (ligand) | 69.6 |

Next, values leading:

| Kd [nM] | Substance |
| --- | --- |
| 0.66 | IL-18 polypeptide C144 (V11I, C38A, K53A, T63A, C76A, C127A) (from UniProt Q14116 37-193) (ligand) |
| 0.64 | IL-18 polypeptide C149 (V11I, E31A, C38A, K53A, C76A, C127A) (from UniProt Q14116 37-193) (ligand) |
| 0.74 | IL-18 polypeptide C155 (V11I, C38A, D40A, K53A, C76A, C127A) (from UniProt Q14116 37-193) (ligand) |
| 0.55 | IL-18 polypeptide C159 (V11I, C38A, K53A, C76A, H109A, C127A) (from UniProt Q14116 37-193) (ligand) |
| 0.71 | IL-18 polypeptide C160 (V11I, C38A, K53A, C76A, D110A, C127A) (from UniProt Q14116 37-193) (ligand) |
| 0.06 | IL-18 polypeptide C161 (K8R, V11I, C38A, C76A, Q103E, C127A) (from UniProt Q14116 37-193) (ligand) |
| 0.85 | IL-18 polypeptide C162 (K8E, V11I, C38A, C76A, Q103R, C127A) (from UniProt Q14116 37-193) (ligand) |
| 0.05 | IL-18 polypeptide C163 (V11I, C38A, C76A, Q103K, C127A) (from UniProt Q14116 37-193) (ligand) |
| 0.08 | IL-18 polypeptide C164 (V11I, C38A, S55H, C76A, C127A) (from UniProt Q14116 37-193) (ligand) |
| 0.15 | IL-18 polypeptide C165 (V11I, C38A, S55R, C76A, C127A) (from UniProt Q14116 37-193) (ligand) |
| 0.02 | IL-18 polypeptide C166 (V11I, C38A, S55T, C76A, C127A) (from UniProt Q14116 37-193) (ligand) |
| 0.04 | IL-18 polypeptide C167 (V11I, C38A, C76A, S105I, C127A) (from UniProt Q14116 37-193) (ligand) |
| 0.05 | IL-18 polypeptide C168 (V11I, C38A, C76A, S105K, C127A) (from UniProt Q14116 37-193) (ligand) |
| 0.14 | IL-18 polypeptide C174 (K8L, E6K, V11I, C38A, K53A, T63A, C76A, C127A) (from UniProt Q14116 37-193) (ligand) |
| 0.13 | IL-18 polypeptide of SEQ ID NO: 38 (E06K) (from UniProt Q14116 37-193) (ligand) |
| 0.03 | IL-18 polypeptide of SEQ ID NO: 47 (C38S, C68S, C76S, C127S) (from UniProt Q14116 37-193) (ligand) |
| 0.21 | IL-18 polypeptide of SEQ ID NO: 48 (C38S, C68S, C76S, C127S, K70C) (from UniProt Q14116 37-193) (ligand) |
| 0.83 | IL-18 polypeptide of SEQ ID NO: 52 (E06K, T63A) (from UniProt Q14116 37-193) (ligand) |
| 0.67 | native IL-18 wild-type (SEQ ID NO: 1) (from UniProt Q14116 37-193) (ligand) |

What follows are substances tested against human IL-18BP-His (human) (UniProt O95998) (assay: AlphaLISA detection of free IL-18BP after incubation with the IL-18 analyte).

| Kd [nM] | Substance |
| --- | --- |
| 0.103 | IL-18 polypeptide of SEQ ID NO: 31 (C38A, C76A, C127A) (from UniProt Q14116 37-193) (ligand) |
| 0.411 | native IL-18 wild-type (SEQ ID NO: 1) (from UniProt Q14116 37-193) (ligand) |

What follows are substances tested against native IL-18 wild-type (SEQ ID NO: 1) (human) (UniProt Q14116) (assay: cell-based or functional assay).

| IC50 of IL-18BP-mediated inhibition of IFNγ secretion, PD-1negative parental NK-92 cells [nM] | Substance |
| --- | --- |
| 2.97 | His-tag human IL-18 binding protein isoform a (IL-18BPa; SinoBiologicals #10357-H08H) (from UniProt O95998 31-194) |

These substances were tested against human IL-18BP-His (human) (UniProt O95998) (assay: AlphaLISA for free IL-18BP; test item titrated (x axis) and pre-incubated with human IL-18BP-His, unbound IL-18BP detected).

| IC50 (read off the curve) [nM] | Substance |
| --- | --- |
| 0.1 | IL-18 polypeptide of SEQ ID NO: 31 (C38A, C76A, C127A) (from UniProt Q14116 37-193) (ligand) |
| 0.4 | native IL-18 wild-type (SEQ ID NO: 1) (from UniProt Q14116 37-193) (ligand) |
